From the DeepSol protein solubility set come the findings set out here.

This data set is described as follows: soluble on expression in E. coli; label from the status in PepcDB or PDB records.
Regarding “MGSDKIHHHHHHMPVGRGVSVGLLPKSQSPLIGVDISSTAVKLLQLSRSGNRFRVEHYAVEPLPPNAVVEKNIVEVEAVGEAIRRAINRSGSKAKNAAAAVAGSAVITKLIPMPADLDDSDLEAQVELEATNYIPYPIEEVNLDFEVLGPMPNSPDMVQVLLAASRSENVELRQSALELGGLVAKVMDVEAFAVENAFALVASELPVAADAVVALVDIGATMTTLSVLRSGRSLYSREQVFGGKQLTDEVMRRYGLTYEEAGLAKRQGGLPESYEVEVLEPFKEATVQQISRLLQFFYAGSEFNRVDCIVLAGGCAALSRLPEMVEEQLGVTTVVANPLAQMTLGPKVQAHALALDAPALMIATGLALRSFD”, the “soluble on expression in E. coli” value was “not soluble”. For “MGSDKIHHHHHHMKLGLLTAPFAETPLADVAAWASSAGFEALEIACWPKTSGATRRYAGTSHIDAASTSPAQAKEITASLAEKHLTISGLGYYPNPLHPDAAHREAVIGHLKKVIELAANMGVPVVNTFCGGDASKTVDVNWQDALKVWPEIVAFARGHGIKLAFENCPMIFSYDEWPGGHNIAYSPQVWRRILETWGGDIGMNFDPSHLVWQMIDQARFIREFGPYMLHVHAKDLMIDHDGLYERGILSAGIGWQVPRMPGLGDVDWSGFFSGLYRAGYDGSVIIEHEDRRFEGSDEQVKRGFLLARDVLRPYVK” the value was “not soluble”.

“KNFDGDLNDYRQWRLAQENAAVAPAASAQSQSRKDTKRIEAQIRQEKARRGKPIQQKIDRAEKEMAQLSEIQTACEAFLAQEEAYFEENKEKLQDTLSELAKVKTQLAQIEEVWLACQEELEQIETEIEKQFAER”: the “soluble on expression in E. coli” value is on record as “not soluble”. In the case of “ALKQKIIGNGEKRVVTYAPTWREDDFISVGHYHFRWHFSLKKMMGLLPEDVMLLIRPHYLVTDRIDIKGFEDRVVIDSTTDMNEIYLITDLMVTDYSSVMFDFAILKRPMLFFAYDLEYYRDDLRGFYFDYYTELPGSIVTDETHLLAEIDQLLQNNFAELDPERFNKFAKRFVSWERGTAAQQVIEKINYRRDEK” it was “not soluble”; in that of “SFFTCGPNEAMVVSGFCRSPPVMVAGGRVFVLPCIQQIQRISLNTLTLNVKSEKVYTRHGVPISVTGIAQVKIQGQNKEMLAAACQMFLGKTEAEIAHIALETLEGHQRAIMAHMTVEEIYKDRQKFSEQVFKVASSDLVNMGISVVSYTLKDIHDDQDYLHSLGKARTAQVQKDARIGEAEAKRDAGIREAKAKQEKVSAQYLSEIEMAKAQRDYELKKAAYDIEVNTRRAQADLAYQLQVAKTKQQIEEQRVQVQVVERAQQVAVQEQEIARREKELEARVRKPAEAERYKLERLAEAEKSQLIMQAEAEAASVRMRGEAEAFAIGARARAEAEQMAKKAEAFQLYQEAAQLDMLLEKLPQVAEEISGPLTSANKITLVSSGSGTMGAAKVTGEVLDILTRLPESVERLTGVSISQVNHKPLRTA”, “not soluble”.

“MGSSHHHHHHGGTGENLYFQGGSGKIFSTLGNPGTLAATKPKKGEVVLASPEATVSKYKEAIKQHKKALKELHACTERFTHALAAVAASLQLLTSDTHIPVMVQSSGALASGIEEVQDGVLLQDLMEELDYSLSTRFKQIAEDQRELKESRERKSKAERTLMLLRSQCDKLQLKKDVDAKVQALYLAKTQKRDEHEVECTRLKAEFEDTFQDFTKRFGILVYEDMKGLTVHLHRVLSALSYQVRKCKDNIMAHPITPKPIAEMS”: the “soluble on expression in E. coli” value is listed as “not soluble”. In the case of “MKQINDVSFLLDKRLVVLIEHQSTINENLPYRLLEYITRIYEKIVDKEKKYQKNLVKIPKPEFIVLYNGADPYPDYTELKLSDAFMDIEGLKLTGIDKIPLELIVPVYNINQGHNPEILKKCESLYGYSFFISKIREYQTQGLTLEELITPVIEYCIKNNILKDYLEAHASEVINMIFGEYDREMDIAVNRREAREEGREEGFKEGKLIIAKNLLSEGSTPEFVQRITGLTLDEIEEIGL” it was “not soluble”; in that of “MAIISSLANHLLIAMPSLKDPNFERSVVYLCEHNEQGSVGLIINRPLQFPLSIVFEQLQIEPIRVEKNGLPLLFGGPVQPERGFVIHKQMGGWRSSLFLQDEVTVTTSNDIIRAIAYDEGPKDVLITLGYAAWTEQQLEREIMSNTWLVCPYKSEILYEVPFEERWEYAGLTLGIKMNQLSSDAGHALEHHHHHH”, “not soluble”. For “MGSDKIHHHHHHMELNEFLDKAYAVLRRLDAVLPPEPGHTDWNALAFRWQSAGKKGFLEHLPDPHTFPLARLAGVGRQTELLVRNTEQFIAGRPANNVLMSGARGTGKSSLVKALLHEYADKGLRLIEVDKSDLIGLPYLLTLLKERPEKFIVFCDDLSFESGDETYKALKTALDGGLSQRCANVLVYATSNRRHLMPEYFDENAGTTGMRGEIHQKEAVEEKISLSDRFGLWLSFYPFDQNDYLAAVQNWLEDFGVPYDETAQMAALQWAQTRGSRSGRSAWQFACDWAGRLPKQRAL” the value was “not soluble”. For “MSITSTDICQAADALKGFVGFNRKTGRYIVRFSEDSFGMDVADDSITPTSEFVWSSVRDDVMRLGREQLQILLEQNINERLNIGEPLLVYLRRQDLPEITAQRQLR” the value was “not soluble”. As for “MGSDKIHHHHHHMRLFSKLFNIRDNTVVERPRSLTGEGIAAKTQTRVAEKISSTPNDTDTVAAPTVDVAALFYSLLFATSHKDTGGIANNLEKRLIGNVESALADPKVIAEKVFKLPHDLIELDKQLANPEVDTEEVIALIKRDPVLSAEVIQLCNAPAFHRGAKDITSLQQAVVILGREQLRRFVSAVKVREVVEIKPIYYRRFGAEVWRHSLQVAYLAAELATEDQDTAFMLGLIHDVGKIAIFQMLLEAFAKAEPGEQPRSWLFRQVMTSKSLILSAVLARSWLLPPLFSRSLAALANPDNMPTEPLPKAIWTANHISECSMLWQAARLKEPQLNELLARIGMDRKTFDPLHEKLILFTR”, the “soluble on expression in E. coli” value is “not soluble”.

Take “MIVIIDYDTGNTKSISKALDFIGLQNKISSDATEISQADGVILPGVGAYPEAMKELTRRGLNKTLKEIAAGGKPILGVCLGMQLLLESSNEHSFTNGLGLIPGHVEKLPEDPEFAVPHMGWNQLQIKRATPLTKQLDGEYVYYVHSYYANCPEEYIIATSGYSIEVPGMINKGNIYGAQFHPEKSGQIGLEILKGFKEVTYSCKSSQQ”: the “soluble on expression in E. coli” value is given as “not soluble”.

As to “MSKSSNSDSQKSLPSPGHPSTGRPDLDLITDPLEEQRLEPQRDSHRSDTRGHPSTGRKSHNSTSAQSSVYNSRTDPENAAMDSDEELRKMMEGFVDDEESDPTYEPP”, the “soluble on expression in E. coli” value is recorded as “soluble”. For “KKSSMRKELETIQLLWHQQKGQYQLSKETIELINHKCHDLKHQVQAIRAVKDEKERETYLEKIEKSVQIYSAIVRTGNEILDTILTEKSLICENSGIHINCVADGSLLAFMNPVDLYTLFGNALDNAIEAVRKLESKEKRVIDIMLYERQSFLMLQIVNPMCGEVKFEDGLPLTTKAKNGYHGYGMKSMLHTIQKYEGHLTTEVKNGCFYFNVMLPLERDSNKK” the value was “not soluble”. For “PSLALYVDASGKIKYINEYFLEICRFKSADEATGRSPSELLDTSSRRTLAEKVMETGEGIYNVEKSIKFKALDKPLFTVLSAVPVKDETGTIAGSLMVITDMT”, the “soluble on expression in E. coli” value is “not soluble”.

For “GRLDHNVEAAMGDETKYARINANRSVSNDYQDGNGDSVHSSWERWNADLALGWKPTQDSWIELKGGKGNGEAAYAGRTMDGTQFQRESLGLHAEQKNLTDVIKKVEAQVDYSYNDHIMDNYKMRTPPMMPMAMEVTRRTLNARAAITTEWDRLNVISGVDSQRNKHAGNMYMRDANPIPPLDGDLRFESYGAFSEWTYRLNP”, the “soluble on expression in E. coli” value is “not soluble”.

For “MTKTLETQPEEKTVFLCKETNPDFLGREIYADNVETPYNFYLIRKLYLAKEYQNLAEGEQFFEALCESWDESEQFEELIVKKIYVYVETELMYYTVYFGSFEPTTRDLRSALKQWMYEIPTTKNKKTVRMNETNVQVVPQENQLTELAGEIAVLREMLTLLKENLASLNEAVNQTRNPVISRQIKTIHLKRASPVIAAEQASLKVSEDTNLEQPDVNLSPDNRENQEGETTVATSEPAPIKEALPEKKQENQQSTAAKPLFTFPQETEKSSLNSVNKSAEKEEEQKPEKEAVSMESEKENSSSRTIPADFQRQLDELEEEIYRRFMSRHLEDTDGNQAVPKITIEKRQLEAQMFEAKAFSQSFKQVQKKKAGDVRICNQLSCMKLEKGLDKFLDEVTEYVEKRTLFNKKVRCPLPVIRELEGYGQLNQYMQKILDCY”, the “soluble on expression in E. coli” value is “not soluble”. For “MVRIEVIDIEKPEGVEVIIGQGNFSIFTVDDLARALLTAVPGIKFGIAMNEAKPQLTRYTGNDPELEALAAKNAVKIGAGHVFVILMKNAYPINVLNTIKNHPAVAMIYGASENPFQVIVAETELGRAVIGVVDGKAANKIETDEQKKERRELVEKIGYKID” the value was “soluble”; for “GPGSMDTECLRARHSECIDLASVQLRRQLMDSGIPFTEAEIAALPARFVELLISRLEMFRQREVETRAAVDKCRRETEVEEMRFEQLREATERVQGEKRIISSKISAAVSEYMREDKLEKEKQRERHNELQEVFRQVEKKEAEHRREIIEMERLRKMLKKVTK”, “not soluble”; for “MGSDKIHHHHHHMFKPWVGDDWGHQDNALQGIRLLVMGESHYCDPAKPELVGRCEPDVTSYVVRRYAIEESHRFFTGITQVISGKPKWQMSRDDVAAIWHSIAFYNYVPLYVGTQSRIRPGDKFALGRVPFEILLEQLRPRAILVCGYELWWWVLKGMPCGFNGDPASVPFQKIGPAIAARMKHPSSAYSSVRWRPTLLELLSRARALQQE”, “not soluble”. Regarding “MKISEIENTFKEKLSVSLKKQEDTIRRQSLAENQGKLEVMENMNRVLSEAIESLQSQHSKDTEIIKAGLRTKGDRVTYVDNLRVEKKALEETVSQLRSENDKLKKIIRGESTNKPVLRSRTTKP”, the “soluble on expression in E. coli” value is recorded as “not soluble”. “MSLSKIIFPGFIDLHNHFPQTQVIASYGTKLLEWLNKYTFPNESLFVDDKHCERESKIFLDLLNHNGITTSVSFGSVHPNSVEYLFQEAHRRNMCVIAGNVLMDRNAPDTVLEKADKSYLSSKEIISKWHNVSRCKYAITPRFAITSTPELMEVSQTLCAENQSCYVQTHLSENIDEIETTLELFPDQKDYLSIYDKYKLLSNKTLLAHSIHLEMSEIERMKETKSIAVHCPTSNLFLGSGLFKFKELEEKGVRTAIATDVGGGTSFSMLRTLDEAYKVQQLGNYSLNPLASYFWSTMEGHHHHHH”: the “soluble on expression in E. coli” value is “soluble”. In the case of “RAAIHDIATPVAIVDEQGRVVNLNAAAEQMLAVDKHEALTEPLNDFLGGDDIATDGGSSRVSIEADGRHREYKVQQTALRDETGTQLGYTVVFQDIT” it was “soluble”.

Consider “MGHHHHHHSHMACLNPVPKLYRSVIEDVIEGVRNLFAEEGIEEQVLKDLKQLWETKVLQSKATEDFFRNSIQSPLFTLQLPHSLHQTLQSSTASLVIPAGRTLPSFTTAELGTSNSSANFTFPGYPIHVPAGVTLQTVSGHLYKVNVPIMVTETSGRAGILQHPIQQVFQQLGQPSVIQTSVPQLNPWSLQATTEKSQRIETVLQQPAILPSGPVDRKHLENATSDILVSPGNEHKIVPEALLCHQESSHYISLPGVVFSPQVSQTNSD”, for which the “soluble on expression in E. coli” value is “not soluble”. For “MPGHELEDVINQRLNLYDVLELPTPLDVHTIYDDLPQIKRKYRTLALKYHPDKHPDNPSIIHKFHLLSTATNILTNADVRPHYDRWLIEFLRKTNDIERNKLIQKLEESESSTIPTTTPHPDLLQIQRHGELLRKLKHFNLPYGDWKHLNTQDQENASQHPYYDCSTLRIVLDNFLQSNNKSNCLSHLRNQVFITLSANEIYDIYFSERNNYSKDDSIIIYTVFDTPITAQHVFRNWSSGNLIPTVKDISPLIPLHYYSDFNLETELNDDIARLVSNEPILLD” the value was “not soluble”.
